In article PMC5812673 one finds Hexamer t½ (dissociation of the Zn2+-hexamer) data, which are given here for one substance.

This assay addresses Insulin Aspart (human). Briefly: hexamer dissociation kinetics.

Consider Insulin Aspart (natural protein), for which the Hexamer t½ (dissociation of the Zn2+-hexamer) turned out to be 42.7 s.
